Reference: the nanobody polyreactivity screen of Harvey et al. (2022)

Assay: yeast display, Sf9 membrane polyspecificity reagent, FACS + sequencing; frameworks hold sequencing errors
Summary of the method: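 Sorting gates, low and high (top ~1%), were placed on anti-HA fluorescence to track expression and on streptavidin fluorescence to track reagent binding. A clone's polyreactivity label is taken from the gate it came out of. The reagent was 10% biotinylated, detergent-solubilized Sf9 membrane, applied for 1 hour at 4 °C to galactose-induced yeast display cells.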

Sequence | polyreactivity (PSR sort gate)
QVQLVESGGGLVQAGGSLRLSCAASGSIFGFNAMGWYRQAPGKERELVAAISSGGITNYADSVKGRFTISRDNAKNTVSLQMNSLKPEVTAVYYCAAASESNWSFNYWGQGTQVTVSS | low polyreactivity
QVQLVESGGGLVQAGGSLRLSCAASGSIFGFNAMGWYRQAPGKERELVAAISSGSTYYADSVKGRFTISRDNAKNTVYLQMNRLKPEDTAVYYCAATTGYSWYGYWGQGTQVTVSS | low polyreactivity
QVQLVESGGGLVQAGGSLRLSCAASGSIFGFNTMGWYRQAPGKERELVATINRSGGSTYYADSVKGRFTISRDNAKNTVYVQINSLKPEDTAVYYCAKDVWRHYMNLYDYWGQGTQVTVSS | low polyreactivity
QVQLVESGGGLVQAGGSLRLSCAASGSIFGFYAKGWSRQAPGKEWELVAAITSGDSTHYADSVKGRFTISRDNAKNTVYLQMKSLKPEDTAVNYCAASAPYRYYRSAYSYWGLGTQVTVSS | low polyreactivity
QVQLVESGGGLVQAGGSLRLSCAASGSIFGFYAMGWSRQAPGKERELVAAITSGARTTYADSVKGRFTISRDNAKNTVYLQMNSLKPEDTAVYYSNADTGLGSLDFDKRDYWGQGTQVTVSS | low polyreactivity
QVQLVESGGGLVQAGGSLRLSCAASGSIFGFYAMGWYRQAPGKERELVAAITTGGSTYYADSVKGRFTISRDNAKNNVYFQMISLKPEDTAVYYCAKERWFPYERNDYWGQGTLVTVSS | low polyreactivity
QVQLVESGGGLVQAGGSLRLSCAASGSIFGFYAMGWYRQAPGKERELVAAITYSGGSTYADSVKGRFTISRDNAKNTVYLQMNSLKPEDTAVYYCAKDAELDITDAFYYWGQGTQVTVSS | low polyreactivity
QVQLVESGGGLVQAGGSLRLSCAASGSIFGFYAMGWYRQAPGKERELVASITISGGSTYYADSVKGRFTISRDNAKNTVYLQLNSLKPEDTAVYYCAARRFWDYNYWGQGTQVTVSS | low polyreactivity
QVQLVESGGGLVQAGGSLRLSCAASGSIFGGNAMGWYRQPPGKERELVAAITDGGNTNYADSVKGRFTISRDNAKNTVYLQMNSMKPEDTAVFYCAARIPGTYGGRYGYDYWGQGTQVTVSS | low polyreactivity
QVQLVESGGGLVQAGGSLRLSCAASGSIFGGNTMGWYRQAPGKERELVAAIRYSGGSTYYADSVKGRFTISRDNAKNTVYLQMNSLKPEDTAVYYCATSYRQYGYYWYDYWGQGTQVTVSS | high polyreactivity
QVQLVESGGGLVQAGGSLRLSCAASGSIFGGYAMGWYRPAPGKERELVAAISKTGGTTYYADSVKGRFTISRDNAKNTVYLQMKSLKPEDTAVYYCNAPKRYSGSAYGYGYWGQGTQVTVSS | high polyreactivity
QVQLVESGGGLVQAGGSLRLSCAASGSIFGGYAMGWYRQAPCQDRELVAAISTRGGSTYYADSVKGRFTISRDNAKNTVYLQMNSQKPEDTAVYYCAADYLDSSYGYVYGWDDYWGQGTQVNVSS | low polyreactivity
QVQLVESGGGLVQAGGSLRLSCAASGSIFGGYAMGWYRQAPGKEREFVAAISRRGASTYYADSVKGRFTISRDNAKNTVYLQMNSLKPEDTAVYYCNARAYGRIDGHSATYGYWGQGTQVTVSS | high polyreactivity
QVQLVESGGGLVQAGGSLRLSCAASGSIFGGYAMGWYRQAPGKERELVAAISFSGGSTYYADSVKGRFTISRDNAKNTVYSQMNSLKPEDTAVYYCAADPYYSYLFDYWGQGTQVTVSS | low polyreactivity
QVQLVESGGGLVQAGGSLRLSCAASGSIFGGYAMGWYRQAPGKERELVAAISRSGGRTYYADSVKGRFTISRDNAKNTVYLQMNSLKPEDTAVYYCNRVTGYDSGDGYWGQGTQVTVSS | high polyreactivity
QVQLVESGGGLVQAGGSLRLSCAASGSIFGGYAMGWYRQAPGKERELVAAISSGGSTYYADSVKGRFTISRDNAKNTVYLQMKSLKPEDTAVYYCATSTYAYRRNSYYYTRPRFGYWGQGTQVTVSS | high polyreactivity

Sequence | polyreactivity (PSR sort gate)
QVQLVESGGGLVQAGGSLRLSCAASGSIFGGYAMGWYRQAPGKERELVAAISSSGVRTYYADSVKGRFTISRDNAKNTVYLQMNSLKPEDTAVYYCAADRSRSIIPFDYWGQGTQVTVSS | low polyreactivity
QVQLVESGGGLVQAGGSLRLSCAASGSIFGGYAMGWYRQAPGKERELVADISGSGGGTYYADSVKGRFTISRDNAKNTVYLQMNSLKPEDTAVYYCARRPRTYKHWFGYWGQGTQVTVSS | low polyreactivity
QVQLVESGGGLVQAGGSLRLSCAASGSIFGGYAMGWYRQAPGKERELVAGITYSGDSTYYADSVKGRFTISRDNAKNTVYLQMNSLKPEDTAVYYCNADQRVDHDDFDYWGQGTQVTVSS | low polyreactivity
QVQLVESGGGLVQAGGSLRLSCAASGSIFGGYAMGWYRQAPVKERELVARIRVSGGRTYYSDSVKGRFTISRDNAKNTVYLQRNSLKPEDTAVYYCNALLAGRRVARGYDSWGQGTQVTVSS | high polyreactivity
QVQLVESGGGLVQAGGSLRLSCAASGSIFGGYTMGWYRQAPGKERELVAAISRRGGNTYYADSVKGRFTISRDNAKNTVYLQMNSLKPEDTAVYYCAVRWPSARIPVKLDYWGQGTQVTVSS | high polyreactivity
QVQLVESGGGLVQAGGSLRLSCAASGSIFGIYAMGWYRQAPGKERELVAAISKSGGGTYYADSVKGRFTISRDNAKNTVYLQMNSLKPEDTAVYYCNADYWQWYSYWYDYWGQGTQVTVSS | high polyreactivity
QVQLVESGGGLVQAGGSLRLSCAASGSIFGIYTMGWYRQAPGKERELVAAIRRSGSTNYADSVKGRFTISRDNAKNTVYLQMNSLKPEDTAVYYCAADALSDEYDYWGQGTQVTVSS | low polyreactivity
QVQLVESGGGLVQAGGSLRLSCAASGSIFGKNAMGWYRQAPGKERELVAAITRRGGSTYYADSVKGRFTISRDNAKNTVYLQMNSLKPEDTAVYYCNALLTGGYQDSYPDDYWGQGTQVTVSS | high polyreactivity
QVQLVESGGGLVQAGGSLRLSCAASGSIFGLNAMGWYRQAPGKERELVAASSVSGTRTYYADSVKGRFTISRDNAKNTGYVQMNSLKPEDTAVYYCATRRYIFYSPYRYGYWGQGTHVTVSS | high polyreactivity
QVQLVESGGGLVQAGGSLRLSCAASGSIFGLYAMGWYRQAPGKEREFVASITYSGGSTYYADSVKGRFTISRDNAKNTVYLQMTSLKPEDTAVYYCAAESYWGYDYWGQGTQVTVSS | high polyreactivity
QVQLVESGGGLVQAGGSLRLSCAASGSIFGLYAMGWYRQAPGKERELVAAINQSGGSTSYADSVKGRFTISRDNAKNTVYLQMNSLKPEDTAVYYCNRVRLNSEGFDYWGQGTQVTVSS | low polyreactivity
QVQLVESGGGLVQAGGSLRLSCAASGSIFGLYAMGWYRQAPGKERELVAAINWNGGDTYYADSVKGRFTISRDYAKNTVYLQMNSLIAVDNAVYYCAAYPRDPYKEYDYLGQGTQVTVSS | low polyreactivity
QVQLVESGGGLVQAGGSLRLSCAASGSIFGLYAMGWYRQAPGKERELVATITSGTNTYYADSVKGRFTISRDNAKNTVYLQMNSLKAEDTAVYYCAKSYIAWDGRTFEEMNYWGQGTLVTVSS | low polyreactivity
QVQLVESGGGLVQAGGSLRLSCAASGSIFGLYAMGWYRQAPGKERELVAVITYSVGTTYYADSVKGRFTISRDNAKNTVYLQMNSLKPEDTAVYYCAADLYWYYPWSAYYGEYDYWGQGTQVTVSS | low polyreactivity
QVQLVESGGGLVQAGGSLRLSCAASGSIFGLYAMGWYRQAPGKEREVFADITIGGSTYYADSVKGRFTISRDNAKNTVYLQMNSLKPEDTAVYYCASRPGSWYPSVPSYNYWGQGTQVTVSS | low polyreactivity
QVQLVESGGGLVQAGGSLRLSCAASGSIFGNNAMGWYRQAPGKERELVAAITSGGSTTYADSVKGRFTISRDNAKNTVYLLMNSLKPEDTAVYYCAATPVWGFVWEYNYWGQGTQVTVSS | low polyreactivity
